In the Immune Epitope Database (IEDB) one finds IC50 data, which are given here for 23 sequences.

For orientation: IC50 means the midpoint of a concentration-inhibition curve.

One assay addresses HLA-A*02:03. Briefly: IEDB peptide-MHC binding, cellular MHC/competitive/fluorescence; ≥ and ≤ were set here for values at or beyond the usual limits of such assays.
Assay [1] concerns the target HLA-A*02:01. The description is as above.
Assay [2] deals with HLA-A*68:02. The assay is described as follows: IEDB peptide-MHC binding, purified MHC/competitive/radioactivity; ≥ and ≤ were set here for values at or beyond the usual limits of such assays.
The target in another assay is HLA-A*02:02. Described as above.
A further assay has as its target HLA-A*02:06. Described as above.
The target of assay [3] is HLA-A*02:01. The description is as above.
In assay [4] the target is HLA-A*68:02. Briefly: IEDB peptide-MHC binding, cellular MHC/competitive/fluorescence; ≥ and ≤ were set here for values at or beyond the usual limits of such assays.
The mark [5] stands for this setting: source organism: Vaccinia virus WR.
The mark [6] stands for this setting: source organism: Mammarenavirus brazilense.
Setting [7] is: source organism: Mammarenavirus guanaritoense.
The mark [8] stands for this setting: source organism: Mammarenavirus whitewaterense.
The mark [9] stands for this setting: source organism: Influenza A virus.
Setting [10] is: source organism: Mammarenavirus choriomeningitidis.

As to MVEYLENQL, the IC50 with HLA-A*02:03 (setting [5]) came to 6460 nM; with HLA-A*02:01 [1] (setting [5]), 12000 nM; in the assay with HLA-A*68:02 [2] (setting [5]), 591 nM; with HLA-A*02:02 (setting [5]), 343 nM; with HLA-A*02:06 (setting [5]), 3960 nM.
For the sequence SICLDYIIV, the IC50 in the assay with HLA-A*02:03 (setting [5]) stood at 8650 nM; with HLA-A*68:02 [2] (setting [5]), 2930 nM; with HLA-A*02:02 (setting [5]) it was 1460 nM; with HLA-A*02:01 [3] (setting [5]) it was 579 nM; with HLA-A*02:06 (setting [5]), 689 nM.
Take SNPNLFWAV: the IC50 with HLA-A*02:03 (setting [6]) turned out to be 6160 nM; with HLA-A*68:02 [2] (setting [6]), 79 nM; with HLA-A*02:02 (setting [6]), 170 nM; with HLA-A*02:01 [3] (setting [6]), 1460 nM; in the assay with HLA-A*02:06 (setting [6]), 35 nM.
Turning to STVDVRNIVT, the IC50 in the assay with HLA-A*02:03 (setting [5]) was 11600 nM; with HLA-A*68:02 [2] (setting [5]), 475 nM; in the assay with HLA-A*02:02 (setting [5]) it was 3060 nM; with HLA-A*02:01 [3] (setting [5]), 3050 nM; in the assay with HLA-A*02:06 (setting [5]), 1570 nM.
For the sequence SVDIETAIRA, the IC50 in the assay with HLA-A*02:03 (setting [5]) worked out at 7620 nM; with HLA-A*02:01 [1] (setting [5]), 5140 nM; with HLA-A*68:02 [2] (setting [5]), 834 nM; in the assay with HLA-A*02:02 (setting [5]), 2830 nM; with HLA-A*02:06 (setting [5]) it was 1030 nM.
The corresponding values for SVDVDIYDA are 11900 nM, 13300 nM, 345 nM, 1200 nM and 953 nM.
Consider TIILNKIVQL, for which the IC50 in the assay with HLA-A*02:03 (setting [5]) was 49300 nM; in the assay with HLA-A*68:02 [2] (setting [5]) it was 2670 nM; in the assay with HLA-A*02:02 (setting [5]), 1760 nM; with HLA-A*02:01 [3] (setting [5]) it was 86 nM; with HLA-A*02:06 (setting [5]), 30 nM.
Regarding TNAEFTFQL, the IC50 with HLA-A*02:03 (setting [7]) amounted to 15100 nM; with HLA-A*02:01 [1] (setting [7]) it was 5020 nM; with HLA-A*68:02 [2] (setting [7]) it was 5.3 nM; with HLA-A*02:02 (setting [7]), 404 nM; with HLA-A*02:06 (setting [7]) it was 3620 nM.
Turning to TTPLISFFGL, the half-maximal inhibitory concentration (IC50) in the assay with HLA-A*02:03 (setting [5]) is 17600 nM; with HLA-A*02:01 [1] (setting [5]), 27300 nM; with HLA-A*68:02 [2] (setting [5]), 198 nM; with HLA-A*02:02 (setting [5]), 5000 nM; with HLA-A*02:06 (setting [5]) it was 3360 nM.
On to TTTFITVLT, for which the IC50 with HLA-A*02:03 (setting [5]) turned out to be 8590 nM; in the assay with HLA-A*68:02 [2] (setting [5]), 33 nM; with HLA-A*02:02 (setting [5]), 2460 nM; with HLA-A*02:01 [3] (setting [5]), 2320 nM; in the assay with HLA-A*02:06 (setting [5]), 1090 nM.
For VCFWSTLFYV, the IC50 came to 7020 nM with HLA-A*02:03 (setting [8]); 525 nM with HLA-A*68:02 [2] (setting [8]); 349 nM with HLA-A*02:02 (setting [8]); 904 nM with HLA-A*02:01 [3] (setting [8]); 1130 nM with HLA-A*02:06 (setting [8]).
With VLFQNWGI, the half-inhibitory concentration (IC50) with HLA-A*68:02 [4] (setting [9]) turned out to be 54800 nM; with HLA-A*02:03 (setting [9]) it was 10100 nM; with HLA-A*02:02 (setting [9]), 1560 nM; in the assay with HLA-A*02:01 [3] (setting [9]), 849 nM; in the assay with HLA-A*02:06 (setting [9]) it was 2640 nM.
Consider VLTSVDIET, for which the IC50 with HLA-A*68:02 [4] (setting [5]) is 37500 nM; with HLA-A*02:03 (setting [5]), 11300 nM; with HLA-A*02:02 (setting [5]) it was 382 nM; with HLA-A*02:01 [3] (setting [5]) it was 136 nM; in the assay with HLA-A*02:06 (setting [5]), 14 nM.
With VMDTLNGIMM, the 50% inhibitory concentration (IC50) stood at 6920 nM with HLA-A*68:02 [4] (setting [5]); 5160 nM with HLA-A*02:03 (setting [5]); 7.6 nM with HLA-A*02:02 (setting [5]); 33 nM with HLA-A*02:01 [3] (setting [5]); 403 nM in the assay with HLA-A*02:06 (setting [5]).
With VQLSNNKYVL, the IC50 with HLA-A*68:02 [4] (setting [5]) is not below 70000 nM; in the assay with HLA-A*02:03 (setting [5]), 9490 nM; in the assay with HLA-A*02:02 (setting [5]), 288 nM; with HLA-A*02:01 [3] (setting [5]), 4590 nM; with HLA-A*02:06 (setting [5]) it was 170 nM.
For VQTLISLNSM, the IC50 with HLA-A*68:02 [4] (setting [5]) is 50900 nM; with HLA-A*02:03 (setting [5]), 5820 nM; with HLA-A*02:02 (setting [5]) it was 1560 nM; with HLA-A*02:01 [3] (setting [5]) it was 259 nM; with HLA-A*02:06 (setting [5]), 853 nM.
Consider VVYHDDDNTT, for which the 50% inhibitory concentration (IC50) is 27800 nM with HLA-A*68:02 [4] (setting [5]); 12600 nM in the assay with HLA-A*02:03 (setting [5]); 1860 nM with HLA-A*02:02 (setting [5]); 2980 nM with HLA-A*02:01 [3] (setting [5]); 3920 nM in the assay with HLA-A*02:06 (setting [5]).
Regarding WSAIFFTTSL, the IC50 was 6990 nM with HLA-A*02:03 (setting [7]); 9090 nM with HLA-A*02:01 [1] (setting [7]); 300 nM with HLA-A*68:02 [2] (setting [7]); 2000 nM in the assay with HLA-A*02:02 (setting [7]); 1410 nM with HLA-A*02:06 (setting [7]).
Take YALEPRKEI: the half-inhibitory concentration (IC50) in the assay with HLA-A*02:03 (setting [5]) was determined as 7070 nM; in the assay with HLA-A*02:01 [1] (setting [5]) it was 9810 nM; with HLA-A*68:02 [2] (setting [5]), 710 nM; in the assay with HLA-A*02:02 (setting [5]) it was 3700 nM; with HLA-A*02:06 (setting [5]) it was 4110 nM.
As for YAVLSEYET, the IC50 was 35100 nM in the assay with HLA-A*02:03 (setting [5]); 37200 nM with HLA-A*02:01 [1] (setting [5]); 246 nM with HLA-A*68:02 [2] (setting [5]); 1780 nM with HLA-A*02:02 (setting [5]); 1330 nM in the assay with HLA-A*02:06 (setting [5]).
Consider YAVLSEYETM, for which the IC50 was 9630 nM with HLA-A*02:03 (setting [5]); 5510 nM in the assay with HLA-A*02:01 [1] (setting [5]); 4160 nM with HLA-A*68:02 [2] (setting [5]); 157 nM in the assay with HLA-A*02:02 (setting [5]); 1210 nM with HLA-A*02:06 (setting [5]).
For the sequence YCNYSKFWYL, the concentration for half-maximal inhibition (IC50) with HLA-A*02:03 (setting [10]) came out at 9640 nM; with HLA-A*68:02 [2] (setting [10]), 925 nM; with HLA-A*02:02 (setting [10]), 1110 nM; with HLA-A*02:01 [3] (setting [10]), 1710 nM; with HLA-A*02:06 (setting [10]) it was 1060 nM.
Consider YVVIVENDNV, for which the IC50 is 11000 nM with HLA-A*02:03 (setting [5]); 99 nM with HLA-A*68:02 [2] (setting [5]); 2340 nM in the assay with HLA-A*02:02 (setting [5]); 547 nM with HLA-A*02:01 [3] (setting [5]); 60 nM in the assay with HLA-A*02:06 (setting [5]).
